The target in this assay is alternative-spliced domain A1 of human Tenascin C (human) (UniProt P24821). As to the kind of experiment: SPR (BIAcore), antibody over hTnC A1 on CM5 chip, fitted 50 nM curves. For orientation: In SPR one partner is held on a chip, and binding of the other changes the refractive index at the surface.
UniProt P24821, sequence (P24821 1072-1162): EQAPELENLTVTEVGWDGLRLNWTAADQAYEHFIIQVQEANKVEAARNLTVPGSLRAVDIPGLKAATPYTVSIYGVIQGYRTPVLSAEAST

B1: IgG(F16)-3S-N88Q (antibody, V domains shown)
VH: EVQLLESGGGLVQPGGSLRLSCAASGFTFSRYGMSWVRQAPGKGLEWVSAISGSGGSTYYADSVKGRFTISRDNSKNTLYLQMNSLRAEDTAVYYCAKAHNAFDYWGQGTLVTVSS
VL: SSELTQDPAVSVALGQTVRITCQGDSLRSYYASWYQQKPGQAPVLVIYGKNNRPSGIPDRFSGSSSGNTASLTITGAQAEDEADYYCQSSVYTMPPVVFGGGTKLTVLG
modifications: glycosylated Heavy Chain (site not given)
As to B1, the fold lower apparent KD than wild-type IgG(F16)-3S fell in the range of 4 to 8 fold.

(Values after patent publication US20190127451A1.)
